Test results published in article PMC3790809 (2013).

Tests used:
[1] = biological target: untagged YsaL (YE3555); test: SPR
[2] = biological target: untagged YsaL (YE3555); test: SPR; refolded YsaN
[3] = biological target: untagged YsaL (YE3555); test: SPR; remark: listed apart in the source
[4] = biological target: untagged YsaL (YE3555); test: SPR; remark: listed apart in the source

B1: YsaNΔ(1–5)-His (domain or fragment)
chain: SCAHPSRIHGCLLEAPLHGVFIGEICLIERDLCQPEVIAKAQVVGFKEGQTILSLIGRAQGLTREVVIRPTGQPFVFEMGEHLAGKIYNAAGEEVGVLSNATASSEPLFTTLCRVDNPPVSVNLRRPVTTPLVTGVRAIDGLLTCGQGQRMGIFAAAGSGKTSLMSMIMNHAVADICVIALIGERGREVTEFIHELQTSPRAAQTILVYATSDSPAVERCNAALLATAMAEYFRDQGKDVLLFVDSMTRYARALRDVALAAGELPARRGYPASVFEQLPLLLERPGALQHGSITAFYTVLLESEEESDPIGDEIRSIIDGHIYLSAQLAGRGHYPAIDILHSISRVFSKVTTPQHRQDAAKTRDMLGRLAQIQLYLDLGEYQRGENTDNDHALDNRDVIEGFLQQAMEEPGEFSTTLNQLRELAN
Work on B1 yielded a Kd [1] of 500000 nM.

B2: YsaNflr-His (full length YsaN, refolded) (enzyme)
chain: MNLFDSCAHPSRIHGCLLEAPLHGVFIGEICLIERDLCQPEVIAKAQVVGFKEGQTILSLIGRAQGLTREVVIRPTGQPFVFEMGEHLAGKIYNAAGEEVGVLSNATASSEPLFTTLCRVDNPPVSVNLRRPVTTPLVTGVRAIDGLLTCGQGQRMGIFAAAGSGKTSLMSMIMNHAVADICVIALIGERGREVTEFIHELQTSPRAAQTILVYATSDSPAVERCNAALLATAMAEYFRDQGKDVLLFVDSMTRYARALRDVALAAGELPARRGYPASVFEQLPLLLERPGALQHGSITAFYTVLLESEEESDPIGDEIRSIIDGHIYLSAQLAGRGHYPAIDILHSISRVFSKVTTPQHRQDAAKTRDMLGRLAQIQLYLDLGEYQRGENTDNDHALDNRDVIEGFLQQAMEEPGEFSTTLNQLRELAN
Work on B2 yielded a Kd [2] of 42 nM.

B3: YsaNΔ(426–430)-His (domain or fragment)
chain: MNLFDSCAHPSRIHGCLLEAPLHGVFIGEICLIERDLCQPEVIAKAQVVGFKEGQTILSLIGRAQGLTREVVIRPTGQPFVFEMGEHLAGKIYNAAGEEVGVLSNATASSEPLFTTLCRVDNPPVSVNLRRPVTTPLVTGVRAIDGLLTCGQGQRMGIFAAAGSGKTSLMSMIMNHAVADICVIALIGERGREVTEFIHELQTSPRAAQTILVYATSDSPAVERCNAALLATAMAEYFRDQGKDVLLFVDSMTRYARALRDVALAAGELPARRGYPASVFEQLPLLLERPGALQHGSITAFYTVLLESEEESDPIGDEIRSIIDGHIYLSAQLAGRGHYPAIDILHSISRVFSKVTTPQHRQDAAKTRDMLGRLAQIQLYLDLGEYQRGENTDNDHALDNRDVIEGFLQQAMEEPGEFSTTLNQL
B3 was tested, and the Kd [3] was 114 nM.

B4: YsaNΔ(411–430)-His (domain or fragment)
chain: MNLFDSCAHPSRIHGCLLEAPLHGVFIGEICLIERDLCQPEVIAKAQVVGFKEGQTILSLIGRAQGLTREVVIRPTGQPFVFEMGEHLAGKIYNAAGEEVGVLSNATASSEPLFTTLCRVDNPPVSVNLRRPVTTPLVTGVRAIDGLLTCGQGQRMGIFAAAGSGKTSLMSMIMNHAVADICVIALIGERGREVTEFIHELQTSPRAAQTILVYATSDSPAVERCNAALLATAMAEYFRDQGKDVLLFVDSMTRYARALRDVALAAGELPARRGYPASVFEQLPLLLERPGALQHGSITAFYTVLLESEEESDPIGDEIRSIIDGHIYLSAQLAGRGHYPAIDILHSISRVFSKVTTPQHRQDAAKTRDMLGRLAQIQLYLDLGEYQRGENTDNDHALDNRDVIEGFLQQ
With B4 the Kd [4] was 260 nM.
